Molecular target: nuclear transport factor 2 (NUTF2) (human (endogenous in MCF-7)) (UniProt P61970)
Assay: native MS; native top-down proteomics: whole cell lysates of MCF-7 and MCF-7-EGFR (EGFR-overexpressing) cells fractionated by native SEC, concentrated with molecular weight cutoff filters, direct ESI infusion FAIMS-MSn with HCD, Orbitrap detection; endogenous assemblies

Chain of nuclear transport factor 2 (NUTF2) (P61970 whole entry): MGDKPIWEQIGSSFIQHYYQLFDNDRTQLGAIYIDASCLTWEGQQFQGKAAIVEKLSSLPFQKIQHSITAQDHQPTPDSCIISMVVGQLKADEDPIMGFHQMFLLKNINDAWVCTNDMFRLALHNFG

nuclear transport factor 2 (NUTF2) (from UniProt P61970 1-127) (natural protein; monomeric proteoforms include acetylated, methylated and dimethylated forms (sites K4, K55, K63); monomeric proteoforms include acetylated, methylated and dimethylated forms (sites K4, K55, K63); other documents disagree on this pair)
stoichiometry N: 2

From publication PMC10402242
